Results published in US20170281807A1 (UNIVERSITY OF TENNESSEE RESEARCH FOUNDATION, published 2017).
Ends that are not written are not given here.

B1: peptide p66 (11-1F4 peptope) (peptide)
peptide: KAQKAQAKQAKQAQKAQKAQAKQAKQAQKAQKAQAKQAKQSVTVVTKHYAAFPENLLI
modifications: also: 125I-labeled in pull-down and in vivo work
notes: also called peptope p66
B2: murine 11-1F4 monoclonal antibody (antibody, V domains shown)
VH: QVQLKESGPGLVAPSQSLSITCTVSGFSLSSYGVSWVRQPPGKGLEWLGVIWGDGSTNYHPNLMSRLSISKDISKSQVLFKLNSLQTDDTATYYCVTLDYWGQGTSVTVSS
VL: DVVMTQTPLSLPVSLGDQASISCRSSQSLVHRNGNTYLHWYLQKPGQSPKLLIYKVSNRFSGVPDRFSGSGSGTDFTLKISRVEAEDLGLYFCFQTTYVPNTFGGGTKLEIK

Tests used:
[1] = molecular target: BSA (UniProt P02769 25-607); experiment: EuLISA, BSA-blocked wells without fibrils, p66 then 11-1F4
Chain of BSA (P02769 25-607 limits assumed): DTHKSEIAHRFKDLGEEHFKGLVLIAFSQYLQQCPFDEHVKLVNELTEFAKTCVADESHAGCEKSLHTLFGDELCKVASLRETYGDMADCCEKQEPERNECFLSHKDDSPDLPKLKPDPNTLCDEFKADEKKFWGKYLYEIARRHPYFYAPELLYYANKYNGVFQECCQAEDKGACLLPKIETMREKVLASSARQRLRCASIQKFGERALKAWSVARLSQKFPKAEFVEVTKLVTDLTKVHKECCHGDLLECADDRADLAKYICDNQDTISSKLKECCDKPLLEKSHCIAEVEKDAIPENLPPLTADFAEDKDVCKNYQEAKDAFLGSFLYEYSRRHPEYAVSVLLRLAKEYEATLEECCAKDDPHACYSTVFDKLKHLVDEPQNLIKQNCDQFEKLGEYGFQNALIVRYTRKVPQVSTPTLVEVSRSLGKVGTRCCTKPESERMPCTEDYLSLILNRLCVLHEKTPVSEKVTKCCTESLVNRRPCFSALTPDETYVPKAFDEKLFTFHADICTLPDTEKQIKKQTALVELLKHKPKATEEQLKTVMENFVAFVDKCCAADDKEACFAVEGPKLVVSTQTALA

[2] = molecular target: T1, synthetic Aβ(1-40) amyloid fibrils (UniProt P05067 672-711); experiment: EuLISA, fibrils coated, p66 added and washed, detected by 11-1F4
T1 construct: domain: Aβ(1-40); Fibrillar aggregate; 1-40 counts on the Aβ peptide, not on the precursor
T1 sequence (P05067 672-711 limits assumed): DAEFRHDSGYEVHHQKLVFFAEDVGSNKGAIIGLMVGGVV

[3] = molecular target: B1; experiment: EuLISA, peptide coated, 11-1F4 titrated from 100 nM

| Binder | binding result [1] | binding result [2] | EC50 [3] |
| --- | --- | --- | --- |
| B1 | no binding (tested: 100 µl of a 0.83 mM stock solution) | binds |  |
| B2 |  |  | ~0.5 nM |
